According to publication PMC6736635 (Nature structural & molecular biology, 2019):

Molecular target: EZH2 (human, wild type, subunit of reconstituted PRC2 complexes) (human, UniProt Q15910-2 1-751)
Assay: SEC

- binding result: binds
B1: EED (human, wild type, subunit of reconstituted PRC2 complexes) (natural protein)
chain: not shown
